# Reference: EP4678184A2 (CREATE Medicines, Inc., dated 2026)
# T1: Alexa488 conjugated human CD5 protein (human, UniProt P06127 25-372, limits assumed, Alexa488 conjugated (site not stated))
# T1 sequence (looked up): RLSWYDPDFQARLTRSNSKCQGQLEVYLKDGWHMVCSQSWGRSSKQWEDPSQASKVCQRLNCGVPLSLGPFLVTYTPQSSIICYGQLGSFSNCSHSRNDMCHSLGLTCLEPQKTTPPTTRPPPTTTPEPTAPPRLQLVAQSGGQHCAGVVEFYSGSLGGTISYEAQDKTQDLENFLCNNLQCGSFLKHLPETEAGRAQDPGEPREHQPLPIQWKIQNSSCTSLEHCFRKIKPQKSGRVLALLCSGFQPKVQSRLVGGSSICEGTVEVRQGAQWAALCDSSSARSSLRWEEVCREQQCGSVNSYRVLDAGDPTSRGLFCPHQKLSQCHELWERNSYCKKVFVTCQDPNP
# B1: CD5-CAR (anti-CD5 chimeric antigen receptor on electroporated CD14+ monocytes, Example 15) (receptor, not shown: small tags and cut ends)
# chain: EIQLVQSGGGLVKPGGSVRISCAASGYTFTNYGMNWVRQAPGKGLEWMGWINTHTGEPTYADSFKGRFTFSLDDSKNTAYLQINSLRAEDTAVYFCTRRGYDWYFDVWGQGTTVTVSSGGGGSGGGGSGGGGSDIQMTQSPSSLSASVGDRVTITCRASQDINSYLSWFQQKPGKAPKTLIYRANRLESGVPSRFSGSGSGTDYTLTISSLQYEDFGIYYCQQYDESPWTFGGGTKLEIK
# notes: also called CD5-CAR monocytes
# Target: T1, Alexa488 conjugated human CD5 protein
# Assay: flow cytometry, labelled soluble CD5 on electroporated CD14+ monocytes, 24, 48 and 72 hours post thaw
binder,measurement,value
B1,binding result,binds
